Data from paper PMC6538622.

What was measured:
[1] = target: Yersinia pestis RNase E N-terminal catalytic domain (Yersinia pestis); experiment: SEC
[2] = target: Yersinia pestis RNase E N-terminal catalytic domain (Yersinia pestis); experiment: SEC-SAXS
[3] = target: Acinetobacter baumannii RNase E N-terminal catalytic domain (Acinetobacter baumannii); experiment: SEC
[4] = target: Acinetobacter baumannii RNase E N-terminal catalytic domain (Acinetobacter baumannii); experiment: SEC-SAXS; 5-10 mg/ml protein in 10 mM DTT, 10 mM MgCl2, 0.5 M NaCl, 20 mM Tris pH 8; KW403-4F size-exclusion column, B21 beamline (Diamond Light Source); molecular mass from I(0)
[5] = target: Francisella tularensis RNase E N-terminal catalytic domain (Francisella tularensis) (UniProt Q5NFK7); experiment: SEC
[6] = target: Francisella tularensis RNase E N-terminal catalytic domain (Francisella tularensis) (UniProt Q5NFK7); experiment: SEC-SAXS

Substance: Yersinia pestis RNase E N-terminal catalytic domain (from UniProt A0AAX2HZU4 1-529) (domain or fragment)
- stoichiometry N [1]: 4
- stoichiometry N [2]: 4

Substance: Acinetobacter baumannii RNase E N-terminal catalytic domain (domain or fragment)
- stoichiometry N [3]: 4
- stoichiometry N [4]: 4

Substance: Francisella tularensis RNase E N-terminal catalytic domain (from UniProt Q5NFK7 1-543) (domain or fragment)
- stoichiometry N [5]: 4
- stoichiometry N [6]: 4
